Patent publication US20100272712

Test system: active JNK3 purified protein (Upstate)

Row | Protein | in vitro phosphatase activity analysis (JNK3 phosphorylation by western blot) | in vitro phosphatase activity analysis after GSNO treatment of MKP7 | in vitro phosphatase assay (JNK3 phosphorylation by western blot)
1 | Myc-MKP7 (enzyme, UniProt Q9BY84 1-665, looked up, species assumed, full-length Myc tag) MAHEMIGTQIVTERLVALLESGTEKVLLIDSRPFVEYNTSHILEAININCSKLMKRRLQQDKVLITELIQHSAKHKVDIDCSQKVVVYDQSSQDVASLSSDCFLTVLLGKLEKSFNSVHLLAGGFAEFSRCFPGLCEGKSTLVPTCISQPCLPVANIGPTRILPNLYLGCQRDVLNKELMQQNGIGYVLNASNTCPKPDFIPESHFLRVPVNDSFCEKILPWLDKSVDFIEKAKASNGCVLVHCLAGISRSATIAIAYIMKRMDMSLDEAYRFVKEKRPTISPNFNFLGQLLDYEKKIKNQTGASGPKSKLKLLHLEKPNEPVPAVSEGGQKSETPLSPPCADSATSEAAGQRPVHPASVPSVPSVQPSLLEDSPLVQALSGLHLSADRLEDSNKLKRSFSLDIKSVSYSASMAASLHGFSSSEDALEYYKPSTTLDGTNKLCQFSPVQELSEQTPETSPDKEEASIPKKLQTARPSDSQSKRLHSVRTSSSGTAQRSLLSPLHRSGSVEDNYHTSFLFGLSTSQQHLTKSAGLGLKGWHSDILAPQTSTPSLTSSWYFATESSHFYSASAIYGGSASYSAYSCSQLPTCGDQVYSVRRRQKPSDRADSRRSWHEESPFEKQFKRRSCQMEFGESIMSENRSREELGKVGSQSSFSGSMEIIEVS | The ectopically-expressed MKP7 protein exhibited strong phosphatase activity as demonstrated by the decrease in JNK3 phosphorylation | nitrosylation of MKP7 by GSNO markedly inhibited MKP7 phosphatase activity | –
2 | Flag-tagged MKP7-WT (enzyme, UniProt Q9BY84 1-665, looked up, species assumed, full-length Flag tag) MAHEMIGTQIVTERLVALLESGTEKVLLIDSRPFVEYNTSHILEAININCSKLMKRRLQQDKVLITELIQHSAKHKVDIDCSQKVVVYDQSSQDVASLSSDCFLTVLLGKLEKSFNSVHLLAGGFAEFSRCFPGLCEGKSTLVPTCISQPCLPVANIGPTRILPNLYLGCQRDVLNKELMQQNGIGYVLNASNTCPKPDFIPESHFLRVPVNDSFCEKILPWLDKSVDFIEKAKASNGCVLVHCLAGISRSATIAIAYIMKRMDMSLDEAYRFVKEKRPTISPNFNFLGQLLDYEKKIKNQTGASGPKSKLKLLHLEKPNEPVPAVSEGGQKSETPLSPPCADSATSEAAGQRPVHPASVPSVPSVQPSLLEDSPLVQALSGLHLSADRLEDSNKLKRSFSLDIKSVSYSASMAASLHGFSSSEDALEYYKPSTTLDGTNKLCQFSPVQELSEQTPETSPDKEEASIPKKLQTARPSDSQSKRLHSVRTSSSGTAQRSLLSPLHRSGSVEDNYHTSFLFGLSTSQQHLTKSAGLGLKGWHSDILAPQTSTPSLTSSWYFATESSHFYSASAIYGGSASYSAYSCSQLPTCGDQVYSVRRRQKPSDRADSRRSWHEESPFEKQFKRRSCQMEFGESIMSENRSREELGKVGSQSSFSGSMEIIEVS | – | – | Both MKP7-WT and MKP7-ΔC possessed strong phosphatase activities as detected by the decreased phosphorylation of JNK3
3 | Flag-tagged MKP7-ΔC (A.A.1-317, retaining the catalytic domain) (enzyme, UniProt Q9BY84 1-317, looked up, species assumed, Flag tag) MAHEMIGTQIVTERLVALLESGTEKVLLIDSRPFVEYNTSHILEAININCSKLMKRRLQQDKVLITELIQHSAKHKVDIDCSQKVVVYDQSSQDVASLSSDCFLTVLLGKLEKSFNSVHLLAGGFAEFSRCFPGLCEGKSTLVPTCISQPCLPVANIGPTRILPNLYLGCQRDVLNKELMQQNGIGYVLNASNTCPKPDFIPESHFLRVPVNDSFCEKILPWLDKSVDFIEKAKASNGCVLVHCLAGISRSATIAIAYIMKRMDMSLDEAYRFVKEKRPTISPNFNFLGQLLDYEKKIKNQTGASGPKSKLKLLHLE | – | – | Both MKP7-WT and MKP7-ΔC possessed strong phosphatase activities as detected by the decreased phosphorylation of JNK3
4 | Flag-tagged MKP7-ΔC (C244S) (enzyme, UniProt Q9BY84 1-317 with C244S, looked up, species assumed, Flag tag) MAHEMIGTQIVTERLVALLESGTEKVLLIDSRPFVEYNTSHILEAININCSKLMKRRLQQDKVLITELIQHSAKHKVDIDCSQKVVVYDQSSQDVASLSSDCFLTVLLGKLEKSFNSVHLLAGGFAEFSRCFPGLCEGKSTLVPTCISQPCLPVANIGPTRILPNLYLGCQRDVLNKELMQQNGIGYVLNASNTCPKPDFIPESHFLRVPVNDSFCEKILPWLDKSVDFIEKAKASNGCVLVHSLAGISRSATIAIAYIMKRMDMSLDEAYRFVKEKRPTISPNFNFLGQLLDYEKKIKNQTGASGPKSKLKLLHLE | – | – | the phosphatase activity of MKP7-ΔC (C^244S) was much lower than that of MKP7-WT or MKP7-ΔC protein, and the activity after GSNO treatment was essentially unchanged
